# Experimental data: patent publication US20200262867A1 (WNTRX PHARMACEUTICALS, published 2020)
# *1 amine or outer side, *2 acyl side, *3 side chain or, on linkers, in order; H or OH if unused. Bridges are numbered along the chain shown (N, C = ends). Where no end group is shown, it is not given here. [ ]: non-standard residue; d: D form. Azetidine3carboxylic = O=C(C1CN([*:1])C1)[*:2]; dimethyl = N-terminal dimethyl modification; Phe(4-Cl) = N[C@@H](Cc1ccc(Cl)cc1)C(=O)O; 2Nal = N[C@@H](Cc1ccc2ccccc2c1)C(=O)O; NMeCha = CN[C@@H](CC1CCCCC1)C(=O)O; NMeR = CN[C@@H](CCCNC(=N)N)C(=O)O; hArg = N=C(N)NCCCC[C@H](N)C(=O)O; NMeQ = CN[C@@H](CCC(N)=O)C(=O)O; Cha = N[C@@H](CC1CCCCC1)C(=O)O; dCha = N[C@H](CC1CCCCC1)C(=O)O; AllylGly = C=CC[C@H](N)C(=O)O; αMeL = CC(C)C[C@](C)(N)C(=O)O; Cba = N[C@@H](CC1CCC1)C(=O)O; S5 = C=CCCC[C@](C)(N)C(=O)O; Nle = CCCC[C@H](N)C(=O)O; Ac4c = NC1(C(=O)O)CCC1
# T1: β-catenin (UniProt P35222 1-781, limits assumed)
# T1 construct: also called beta-catenin
# T1 sequence (looked up): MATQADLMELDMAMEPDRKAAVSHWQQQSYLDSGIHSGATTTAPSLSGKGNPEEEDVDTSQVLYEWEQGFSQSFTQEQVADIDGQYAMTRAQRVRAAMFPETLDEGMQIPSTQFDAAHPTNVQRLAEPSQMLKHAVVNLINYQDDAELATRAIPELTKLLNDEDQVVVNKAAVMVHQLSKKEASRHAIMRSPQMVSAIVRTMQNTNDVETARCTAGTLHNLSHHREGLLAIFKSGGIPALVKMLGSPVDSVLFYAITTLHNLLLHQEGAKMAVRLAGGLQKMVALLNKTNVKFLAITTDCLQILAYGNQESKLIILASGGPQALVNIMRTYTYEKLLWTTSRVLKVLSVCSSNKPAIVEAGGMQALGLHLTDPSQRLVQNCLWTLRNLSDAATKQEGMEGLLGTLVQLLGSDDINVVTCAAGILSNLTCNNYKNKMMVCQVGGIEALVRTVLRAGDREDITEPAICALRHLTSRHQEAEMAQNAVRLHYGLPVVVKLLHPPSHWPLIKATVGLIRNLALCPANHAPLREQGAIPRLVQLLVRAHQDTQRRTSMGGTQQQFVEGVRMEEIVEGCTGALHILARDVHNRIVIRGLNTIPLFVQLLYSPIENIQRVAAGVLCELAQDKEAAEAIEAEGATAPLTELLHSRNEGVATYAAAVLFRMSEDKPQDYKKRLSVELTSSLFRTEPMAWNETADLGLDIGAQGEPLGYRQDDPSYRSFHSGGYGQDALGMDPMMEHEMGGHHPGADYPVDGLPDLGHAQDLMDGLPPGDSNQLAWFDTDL
# B1: SEQ ID NO: 176 (peptide)
# peptide: Ac-HRQRSLQTLR[S5]IQR[S5][Ac4c][2Nal]-NH2
# modifications: staple 11-15
# B2: SEQ ID NO: 178 (peptide)
# peptide: Ac-HRQRSLQTLR[S5]IQR[S5][Azetidine3carboxylic][2Nal]-NH2
# modifications: staple 11-15
# SMILES: CC[C@H](C)[C@@H]1NC(=O)[C@@](C)(NC(=O)[C@H](CCCNC(=N)N)NC(=O)[C@H](CC(C)C)NC(=O)[C@@H](NC(=O)[C@H](CCC(N)=O)NC(=O)[C@H](CC(C)C)NC(=O)[C@H](CO)NC(=O)[C@H](CCCNC(=N)N)NC(=O)[C@H](CCC(N)=O)NC(=O)[C@H](CCCNC(=N)N)NC(=O)[C@H](Cc2c[nH]cn2)NC(C)=O)[C@@H](C)O)CCCC=CCCC[C@@](C)(C(=O)N2CC(C(=O)N[C@@H](Cc3ccc4ccccc4c3)C(N)=O)C2)NC(=O)[C@H](CCCNC(=N)N)NC(=O)[C@H](CCC(N)=O)NC1=O
# B3: SEQ ID NO: 155 (peptide)
# peptide: Ac-HR[NMeQ]RSL[NMeQ]TLR[S5]IQR[S5][Cba][2Nal]-NH2
# modifications: staple 11-15
# B4: SEQ ID NO: 143 (peptide)
# peptide: {4‑biphenyl acetic acid}-L[NMeQ]TLR[S5]IQR[S5][Cba][2Nal]-NH2
# modifications: staple 6-10; not fully specified
# B5: SEQ ID NO: 174 (peptide)
# peptide: Ac-LQTLR[S5]IQR[S5][NMeCha][2Nal]-NH2
# modifications: staple 6-10; not fully specified (residue 2); printed as L(N-methylQ)TLRXIQRX(N-methylCha)(2-Nal); also: N-methylQ at 2: D or L (both stated)
# B6: SEQ ID NO: 153 (peptide)
# peptide: Ac-HRQRSL[NMeQ]TLR[S5]IQR[S5][Cba][2Nal]-NH2
# modifications: staple 11-15
# B7: SEQ ID NO: 173 (peptide)
# peptide: Ac-LQTLR[S5]IQR[S5][dCha][2Nal]-NH2
# modifications: staple 6-10; not fully specified (residue 2); printed as L(N-methylQ)TLRXIQRXD(Cha)(2-Nal); also: N-methylQ at 2: D or L (both stated)
# B8: SEQ ID NO: 184 (peptide)
# peptide: Ac-HRQ[NMeR]SLQTLR[S5]IQR[S5][Cha][2Nal]-NH2
# modifications: staple 11-15
# SMILES: CC[C@H](C)[C@@H]1NC(=O)[C@@](C)(NC(=O)[C@H](CCCNC(=N)N)NC(=O)[C@H](CC(C)C)NC(=O)[C@@H](NC(=O)[C@H](CCC(N)=O)NC(=O)[C@H](CC(C)C)NC(=O)[C@H](CO)NC(=O)[C@H](CCCNC(=N)N)N(C)C(=O)[C@H](CCC(N)=O)NC(=O)[C@H](CCCNC(=N)N)NC(=O)[C@H](Cc2c[nH]cn2)NC(C)=O)[C@@H](C)O)CCCC=CCCC[C@@](C)(C(=O)N[C@@H](CC2CCCCC2)C(=O)N[C@@H](Cc2ccc3ccccc3c2)C(N)=O)NC(=O)[C@H](CCCNC(=N)N)NC(=O)[C@H](CCC(N)=O)NC1=O
# B9: SEQ ID NO: 54 (peptide)
# peptide: LQTLR[Nle]IQR[Nle]L[2Nal]PD
# B10: SEQ ID NO: 144 (peptide)
# peptide: dimethyl-L[NMeQ]TLR[S5]IQR[S5][Cba][2Nal]-NH2
# modifications: staple 6-10; not fully specified
# B11: SEQ ID NO: 158 (peptide)
# peptide: Ac-H[NMeR]QRSLQTLR[S5]IQR[S5][Cba][2Nal]-NH2
# modifications: staple 11-15; not fully specified; printed as H(R-Me)QRSLQTLRXIQRX(CBA)(2-Nal), X/X stapled, (S) α-methyl, N-terminal Ac, C-terminal NH2
# B12: SEQ ID NO: 5 (peptide)
# peptide: Ac-RERSLQTLR[S5]IQR[S5]L[2Nal]-NH2
# modifications: staple 10-14; not fully specified; printed as RERSLQTLRXIQRXL(2-Nal)
# B13: SEQ ID NO: 10 (peptide)
# peptide: Ac-QERSLQTLR[S5]IQR[S5]L[2Nal]-NH2
# modifications: staple 10-14; not fully specified; printed as QERSLQTLRXIQRXL(2-Nal)
# B14: SEQ ID NO: 13 (peptide)
# peptide: Ac-RERSLQTLR[S5]IQR[S5][Cba][2Nal]-NH2
# modifications: staple 10-14; not fully specified; printed as RERSLQTLRXIQRX(CBA)(2-Nal)
# B15: SEQ ID NO: 123 (peptide)
# peptide: Ac-L[NMeQ]T[Cha]R[S5]IQR[S5][Cba][2Nal]-NH2
# modifications: staple 6-10; not fully specified; printed as L(N-methylQ)T(Cha)RXIQRX(CBA)(2-Nal)
# B16: SEQ ID NO: 172 (peptide)
# peptide: Ac-LQTLR[S5]IQR[S5][αMeL][2Nal]-NH2
# modifications: staple 6-10; not fully specified (residue 2); printed as L(N-methylQ)TLRXIQRX(α-methylL)(2-Nal); also: N-methylQ at 2: D or L (both stated)
# B17: SEQ ID NO: 175 (peptide)
# peptide: Ac-LQTLR[S5]IQR[S5][AllylGly][2Nal]-NH2
# modifications: staple 6-10
# B18: SEQ ID NO: 195 (peptide)
# peptide: Ac-L[NMeQ]TLR[S5]IQR[S5][Phe(4-Cl)][2Nal]-NH2
# modifications: staple 6-10; not fully specified; printed as L(N-methylQ)TLRXIQRX(4-Cl-Ph)(2-Nal), X/X stapled, (S) α-methyl, N-terminal Ac, C-terminal NH2
# B19: SEQ ID NO: 129 (peptide)
# peptide: Ac-L[NMeQ]TLR[S5][Cba]QR[S5][Cba][2Nal]-NH2
# modifications: staple 6-10; not fully specified; printed as L(N-methylQ)TLRX(CBA)QRX(CBA)(2-Nal)
# B20: SEQ ID NO: 183 (peptide)
# peptide: Ac-H[hArg]QRSLQTLR[S5]IQR[S5][Cha][2Nal]-NH2
# modifications: staple 11-15
# SMILES: CC[C@H](C)[C@@H]1NC(=O)[C@@](C)(NC(=O)[C@H](CCCNC(=N)N)NC(=O)[C@H](CC(C)C)NC(=O)[C@@H](NC(=O)[C@H](CCC(N)=O)NC(=O)[C@H](CC(C)C)NC(=O)[C@H](CO)NC(=O)[C@H](CCCNC(=N)N)NC(=O)[C@H](CCC(N)=O)NC(=O)[C@H](CCCCNC(=N)N)NC(=O)[C@H](Cc2c[nH]cn2)NC(C)=O)[C@@H](C)O)CCCC=CCCC[C@@](C)(C(=O)N[C@@H](CC2CCCCC2)C(=O)N[C@@H](Cc2ccc3ccccc3c2)C(N)=O)NC(=O)[C@H](CCCNC(=N)N)NC(=O)[C@H](CCC(N)=O)NC1=O
# Molecular target: T1, β-catenin
# Test: ALPHA Screen (BCL9/β-catenin);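 also: bead proximity readout with the polypeptide linked to donor beads and β-catenin fixed on acceptor beads, their binding bringing the beads close enough to emit signal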
# From the text: In this assay, a polypeptide is conjugated to a donor bead and its target protein (i.e., β-catenin) is attached to an acceptor bead. When the two beads are in proximity due to the binding of the polypeptide to the target protein, a signal is generated and the binding affinity of the polypeptide can be quantitatively calculated. The assay may be conducted in the presence or absence of an unconjugated control polypeptide.
row,IC50 [nM],Binder
1,236,B1
2,563,B2
3,281,B3
4,6660,B4
5,6880,B5
6,261,B6
7,14700,B7
8,195,B8
9,14600,B9
10,2130,B10
11,383,B11
12,1450,B12
13,4200,B13
14,844,B14
15,3620,B15
16,8000,B16
17,9710,B17
18,13000,B18
19,2060,B19
20,119,B20
